What was measured:
full-length nidogen-1 [1] = target: T1, full-length nidogen-1 (murine, UniProt P10493 29-1245); assay: SPR; nidogen-1 immobilised by amine coupling on a CM5 chip; laminin variants as mobile analytes; single-cycle kinetics, 25°C, 20 mM HEPES, 100 mM NaCl, 0.05% Tween 20, pH 7.5; 1:1 binding model; apparent Kd
T1 construct: For photo-cross-linking the protein was made in Leu- and Met-depleted medium with photo-Met and photo-Leu; 13-25% of all leucines and methionines were partially replaced; also called entactin; source: HEK 293 EBNA cells, purified (Nickel-NTA Superflow); not shown: (His)6, N-terminal, kept
T1 sequence (looked up): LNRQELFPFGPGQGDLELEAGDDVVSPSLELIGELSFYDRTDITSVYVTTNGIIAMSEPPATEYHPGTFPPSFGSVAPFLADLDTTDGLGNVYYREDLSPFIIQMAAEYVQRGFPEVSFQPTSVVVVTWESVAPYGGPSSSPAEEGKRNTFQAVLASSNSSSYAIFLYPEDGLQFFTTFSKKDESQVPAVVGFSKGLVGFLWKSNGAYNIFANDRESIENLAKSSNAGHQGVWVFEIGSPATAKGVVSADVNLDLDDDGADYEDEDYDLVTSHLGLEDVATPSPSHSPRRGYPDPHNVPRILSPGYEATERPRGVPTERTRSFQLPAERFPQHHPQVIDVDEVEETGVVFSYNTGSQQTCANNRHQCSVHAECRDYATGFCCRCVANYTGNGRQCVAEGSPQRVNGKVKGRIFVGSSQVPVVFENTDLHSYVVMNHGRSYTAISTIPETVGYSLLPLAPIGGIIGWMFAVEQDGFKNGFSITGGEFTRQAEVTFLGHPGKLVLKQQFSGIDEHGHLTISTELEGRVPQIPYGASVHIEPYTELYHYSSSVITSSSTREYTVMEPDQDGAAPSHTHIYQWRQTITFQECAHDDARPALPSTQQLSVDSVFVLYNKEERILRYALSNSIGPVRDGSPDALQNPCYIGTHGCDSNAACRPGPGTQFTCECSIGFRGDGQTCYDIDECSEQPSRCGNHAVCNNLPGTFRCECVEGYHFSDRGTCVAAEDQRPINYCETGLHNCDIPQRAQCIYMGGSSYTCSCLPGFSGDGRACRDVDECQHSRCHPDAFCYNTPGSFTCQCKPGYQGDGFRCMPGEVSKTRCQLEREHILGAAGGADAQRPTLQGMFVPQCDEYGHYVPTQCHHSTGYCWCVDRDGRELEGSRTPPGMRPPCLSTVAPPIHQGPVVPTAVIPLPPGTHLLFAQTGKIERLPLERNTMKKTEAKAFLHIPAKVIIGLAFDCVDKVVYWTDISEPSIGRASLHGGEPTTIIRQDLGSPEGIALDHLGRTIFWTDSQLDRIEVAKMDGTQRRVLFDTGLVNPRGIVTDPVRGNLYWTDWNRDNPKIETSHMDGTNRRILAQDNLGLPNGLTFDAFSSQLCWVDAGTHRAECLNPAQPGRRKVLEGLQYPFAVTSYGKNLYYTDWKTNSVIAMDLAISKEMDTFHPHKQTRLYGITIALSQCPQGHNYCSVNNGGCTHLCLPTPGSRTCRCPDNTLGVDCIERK

full-length nidogen-1 [2] = target: T1, full-length nidogen-1; assay: ELISA; laminin fragments coated at 10 µg/ml in TBS overnight at 4°C; nidogen-1 0.03 nM to 234 nM in TBS-T/1% BSA, 1 h at room temperature; detected by anti-(His)6 antibody; apparent Kd; conditions: both partners purified
[3] = target: laminin γ1 short arm (murine); assay: as above
[4] = target: laminin γ1 LEb2–4 N836D (murine); assay: as above

laminin γ1 short arm (domain or fragment)
Kd (full-length nidogen-1 [1]): 12 nM

B1: laminin γ1 short arm N836D (domain or fragment)
chain: AMDECADEGGRPQRCMPEFVNAAFNVTVVATNTCGTPPEEYCVQTGVTGVTKSCHLCDAGQQHLQHGAAFLTDYNNQADTTWWQSQTMLAGVQYPNSINLTLHLGKAFDITYVRLKFHTSRPESFAIYKRTREDGPWIPYQYYSGSCENTYSKANRGFIRTGGDEQQALCTDEFSDISPLTGGNVAFSTLEGRPSAYNFDNSPVLQEWVTATDIRVTLNRLNTFGDEVFNEPKVLKSYYYAISDFAVGGRCKCNGHASECVKNEFDKLMCNCKHNTYGVDCEKCLPFFNDRPWRRATAESASESLPCDCNGRSQECYFDPELYRSTGHGGHCTNCRDNTDGAKCERCRENFFRLGNTEACSPCHCSPVGSLSTQCDSYGRCSCKPGVMGDKCDRCQPGFHSLTEAGCRPCSCDLRGSTDECNVETGRCVCKDNVEGFNCERCKPGFFNLESSNPKGCTPCFCFGHSSVCTNAVGYSVYDISSTFQIDEDGWRVEQRDGSEASLEWSSDRQDIAVISDSYFPRYFIAPVKFLGNQVLSYGQNLSFSFRVDRRDTRLSAEDLVLEGAGLRVSVPLIAQGNSYPSETTVKYIFRLHEATDYPWRPALSPFEFQKLLNNLTSIKIRGTYSERTAGYLDDVTLQSARPGPGVPATWVESCTCPVGYGGQFCETCLPGYRRETPSLGPYSPCVLCTCNGHSETCDPETGVCDCRDNTAGPHCEKCSDGYYGDSTLGTSSDCQPCPCPGGSSCAIVPKTKEVVCTHCPTGTAGKRCELCDDGYFGDPLGSNGPVRLCRPCQCNDNIDPDAVGNCNRLTGECLKCIYNTAGFYCDRCKEGFFGNPLAPNPADKCKACACNPYGTVQQQSSCNPVTGQCQCLPHVSGRDCGTCDPGYYNLQSGQGCERCDCHALGSTNGQCDIRTGQCECQPGITGQHCERCETNHFGFGPEGCKPCDCHHEGSL
modifications: Secreted from HEK293 EBNA cells, so disulfide-bonded LE modules and likely N-glycans. Double Strep tag II omitted. Paper numbering (Asn-836) is one higher than UniProt; classical Asn-802 + 33-residue
Kd (full-length nidogen-1 [2]): 45 nM

B2: full-length nidogen-1 (natural protein)
chain: T1 sequence (looked up)
Kd [3]: 1.1 nM
Kd [4]: 34 nM

B3: laminin γ1 LEb2–4 (domain or fragment, murine)
chain: QPCPCPGGSSCAIVPKTKEVVCTHCPTGTAGKRCELCDDGYFGDPLGSNGPVRLCRPCQCNDNIDPNAVGNCNRLTGECLKCIYNTAGFYCDRCKEGFFGNPLAPNPADKCKACACNPYGTVQQQSSCNPVTGQCQCLPHVSGRDCGTCDPGYYNLQSGQGCER
notes: For photo-cross-linking made with photo-Met and photo-Leu partially incorporated; the limits of LEb2–4 may be marked there; also called laminin γ1 LEb2–4 wild type; LEb2–4 fragment; source: HEK 293 EBNA cells, purified (Strep-Tactin sepharose)
Kd (full-length nidogen-1 [2]): 1.4 nM

— paper PMC4227867, “Analysis of Nidogen-1/Laminin γ1 Interaction by Cross-Linking, Mass Spectrometry, and Computational Modeling Reveals Multiple Binding Modes” (PLoS ONE, 2014)
